US20030171273, “Novel transcription factor, BP1” (published 2003)

Target: beta-galactosidase (UniProt P00722 P00722:2-1024)
Assay: EMSA; data not shown; negative control protein
Conditions: tags: pure protein, chain copies: 4, label: 32P
Experimental: 11:1475-1489). Protein extracts from lysogens were prepared as described (see, for example, Cowell, I. G. and H. C. Hurst. 199. Cloning transcription factors from a cDNA expression library, p.120-122. In D. S. Latchman (ed.), Transcription factors: a practical approach. IRL Press, New York). Competitors were pre-incubated with nuclear extract for 20 minutes prior to addition of the probe. Oligonucleotides sequences of probes and competitors for EMSA analyses are shown below.
To verify that the cDNA encoded a protein with the expected binding specificities of BP1, namely, the ability to bind to Silencers I and II upstream of the β-globin gene and to a sequence −530 bp upstream of the δ-globin gene (see, for example, Berg, P. E., S. Abhyankar, and M. Chase. 1994. The high mobility group protein HMG-I(Y) binds to a silencer DNA sequence upstream of the human β-globin gene. Blood 84 Suppl 1:262a), an EMSA competition assay was performed. The putative BP1 protein, fused to β-galactosidase, was expressed from a λ lysogen, as described above. This fusion protein was partially purified and incubated with the Silencer II probe used for screening the library, resulting in a single shifted band, indicated by the arrow (FIG. 2, lane 1). The band at the top marks the position of the wells, and the band at the bottom contains the unshifted probe. […]

Chain of beta-galactosidase (P00722 2-1024, one chain of several): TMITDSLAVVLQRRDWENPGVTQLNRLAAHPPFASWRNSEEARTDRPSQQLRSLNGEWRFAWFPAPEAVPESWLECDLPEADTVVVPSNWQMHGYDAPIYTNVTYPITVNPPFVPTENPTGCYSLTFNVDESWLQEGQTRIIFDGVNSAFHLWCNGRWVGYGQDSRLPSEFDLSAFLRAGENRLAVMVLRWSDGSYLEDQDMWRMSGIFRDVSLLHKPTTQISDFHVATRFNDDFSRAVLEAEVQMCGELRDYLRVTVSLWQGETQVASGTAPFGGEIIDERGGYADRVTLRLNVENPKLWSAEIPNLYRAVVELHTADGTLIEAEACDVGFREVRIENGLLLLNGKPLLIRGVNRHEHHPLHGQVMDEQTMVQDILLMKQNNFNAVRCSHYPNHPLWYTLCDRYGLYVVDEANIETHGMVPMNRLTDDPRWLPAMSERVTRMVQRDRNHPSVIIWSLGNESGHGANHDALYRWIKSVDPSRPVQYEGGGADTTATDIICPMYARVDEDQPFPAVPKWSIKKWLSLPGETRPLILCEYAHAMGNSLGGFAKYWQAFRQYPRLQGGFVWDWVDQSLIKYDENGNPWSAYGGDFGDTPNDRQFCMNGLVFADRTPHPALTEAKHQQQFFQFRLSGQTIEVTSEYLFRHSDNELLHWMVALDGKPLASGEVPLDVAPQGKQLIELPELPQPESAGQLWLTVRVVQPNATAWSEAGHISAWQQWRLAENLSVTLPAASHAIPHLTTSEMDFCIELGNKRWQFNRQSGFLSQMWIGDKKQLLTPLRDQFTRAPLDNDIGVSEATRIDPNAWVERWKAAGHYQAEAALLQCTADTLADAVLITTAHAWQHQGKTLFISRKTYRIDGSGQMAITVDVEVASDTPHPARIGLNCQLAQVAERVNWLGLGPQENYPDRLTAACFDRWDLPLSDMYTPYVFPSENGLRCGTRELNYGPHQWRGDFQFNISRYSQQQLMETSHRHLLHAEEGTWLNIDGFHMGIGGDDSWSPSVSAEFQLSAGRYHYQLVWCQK

B1: -300 beta (Silencer II) (dsDNA)
DNA 1: TTCTTATTTGTGTAATAAGAAAATTGGGAAAACGATCTTCAATATGCTTACCAAGCTG
DNA 2: CAGCTTGGTAAGCATATTGAAGATCGTTTTCCCAATTTTCTTATTACACAAATAAGAA
binding result: no binding
